Results published in patent US20100036095A1.

Target: C8/C9 (complement components C8 and C9 of normal human serum, in the assembling membrane attack complex) (human), P07357
Test: cell-based or functional assay

Sequence of C8/C9 (complement components C8 and C9 of normal human serum, in the assembling membrane attack complex) (human), P07357 (P07357 31-584 limits assumed, chain 1 of 4): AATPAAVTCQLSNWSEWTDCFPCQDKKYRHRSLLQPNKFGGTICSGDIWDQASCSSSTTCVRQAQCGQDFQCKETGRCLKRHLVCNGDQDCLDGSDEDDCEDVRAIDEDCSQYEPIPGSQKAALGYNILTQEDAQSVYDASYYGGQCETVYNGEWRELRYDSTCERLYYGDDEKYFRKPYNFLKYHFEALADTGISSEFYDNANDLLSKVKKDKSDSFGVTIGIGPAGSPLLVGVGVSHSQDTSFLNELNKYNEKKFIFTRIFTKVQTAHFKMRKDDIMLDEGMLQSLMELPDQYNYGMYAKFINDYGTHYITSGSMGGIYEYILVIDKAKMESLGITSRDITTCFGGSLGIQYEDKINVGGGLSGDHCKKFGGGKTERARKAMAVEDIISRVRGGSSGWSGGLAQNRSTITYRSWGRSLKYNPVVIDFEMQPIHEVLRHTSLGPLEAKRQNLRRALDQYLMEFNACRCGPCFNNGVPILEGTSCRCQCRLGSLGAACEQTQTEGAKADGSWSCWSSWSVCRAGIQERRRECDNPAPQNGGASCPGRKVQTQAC
Sequence of C8/C9 (complement components C8 and C9 of normal human serum, in the assembling membrane attack complex) (human), P07357 (P07358 55-591 limits assumed, chain 2 of 4, further chain): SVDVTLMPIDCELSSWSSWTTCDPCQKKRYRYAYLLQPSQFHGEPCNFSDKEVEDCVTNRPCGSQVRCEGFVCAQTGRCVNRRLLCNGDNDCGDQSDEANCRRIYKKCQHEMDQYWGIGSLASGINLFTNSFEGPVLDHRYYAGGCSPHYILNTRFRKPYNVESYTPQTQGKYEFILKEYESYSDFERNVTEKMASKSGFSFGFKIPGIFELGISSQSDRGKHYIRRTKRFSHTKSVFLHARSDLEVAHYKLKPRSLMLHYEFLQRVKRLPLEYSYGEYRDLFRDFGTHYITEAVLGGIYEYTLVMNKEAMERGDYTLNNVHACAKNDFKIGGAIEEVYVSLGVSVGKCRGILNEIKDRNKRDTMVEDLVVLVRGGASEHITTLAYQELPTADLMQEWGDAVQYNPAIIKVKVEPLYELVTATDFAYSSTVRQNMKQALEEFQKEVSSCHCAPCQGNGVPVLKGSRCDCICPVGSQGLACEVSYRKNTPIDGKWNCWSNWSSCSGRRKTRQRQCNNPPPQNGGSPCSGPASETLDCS
Sequence of C8/C9 (complement components C8 and C9 of normal human serum, in the assembling membrane attack complex) (human), P07357 (P07360 21-202 limits assumed, chain 3 of 4, further chain): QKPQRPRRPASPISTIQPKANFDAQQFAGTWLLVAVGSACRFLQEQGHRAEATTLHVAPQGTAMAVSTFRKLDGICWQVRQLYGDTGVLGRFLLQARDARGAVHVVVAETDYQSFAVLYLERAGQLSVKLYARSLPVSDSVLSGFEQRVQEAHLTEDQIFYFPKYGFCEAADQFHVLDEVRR
Sequence of C8/C9 (complement components C8 and C9 of normal human serum, in the assembling membrane attack complex) (human), P07357 (P02748 22-559 limits assumed, chain 4 of 4, further chain): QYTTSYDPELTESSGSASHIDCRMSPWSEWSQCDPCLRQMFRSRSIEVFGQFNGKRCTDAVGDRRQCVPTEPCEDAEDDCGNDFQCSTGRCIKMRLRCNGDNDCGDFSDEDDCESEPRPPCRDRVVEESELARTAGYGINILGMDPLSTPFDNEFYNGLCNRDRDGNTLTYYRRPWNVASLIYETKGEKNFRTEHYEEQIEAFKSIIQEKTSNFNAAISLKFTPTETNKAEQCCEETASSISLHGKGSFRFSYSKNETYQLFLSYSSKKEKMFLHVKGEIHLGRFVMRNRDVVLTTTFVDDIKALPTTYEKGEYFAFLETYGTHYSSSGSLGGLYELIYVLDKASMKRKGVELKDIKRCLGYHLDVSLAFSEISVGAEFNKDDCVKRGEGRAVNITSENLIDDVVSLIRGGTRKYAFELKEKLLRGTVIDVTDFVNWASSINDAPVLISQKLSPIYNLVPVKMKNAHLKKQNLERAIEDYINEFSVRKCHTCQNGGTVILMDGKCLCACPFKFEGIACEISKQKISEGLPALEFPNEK

B1: CR2-CD59 fusion protein containing CD59 T51A/S20A (protein)
chain: ISCGSPPPILNGRISYYSTPIAVGTVIRYSCSGTFRLIGEKSLLCITKDKVDGTWDKPAPKCEYFNKYSSCPEPIVPGGYKIRGSTPYRHGDSVTFACKTNFSMNGNKSVWCQANNMWGPTRLPTCVSVFPLECPALPMIHNGHHTSENVGSIAPGLSVTYSCESGYLLVGEKIINCLSSGKWSAVPPTCEEARCKSLGRFPNGKVKEPPILRVGVTANFFCDEGYRLQGPPSSRCVIAGQGVAWTKMPVCSGGGGSLQCYNCPNPTADCKTAVNCSADFDACLITKAGLQVYNKCWKFEHCNFNDVATRLRENELTYYCCKKDLCNFNEQLEN
  inhibition of complement-mediated lysis of sensitized CHO cells by soluble protein in normal human serum (fold of wt CR2-CD59): 3
